Data reported in article PMC5345052, “Auto-phosphorylation Represses Protein Kinase R Activity” (Scientific Reports, 2017).

B1: full-length PKR with N-terminal split Venus V1 tag [human] / truncated PKR kinase domain with N-terminal split Venus V2 tag [human] (parent)
chain 1: MAGDLSAGFFMEELNTYRQKQGVVLKYQELPNSGPPHDRRFTFQVIIDGREFPEGEGRSKKEAKNAAAKLAVEILNKEKKAVSPLLLTTTNSSEGLSMGNYIGLINRIAQKKRLTVNYEQCASGVHGPEGFHYKCKMGQKEYSIGTGSTKQEAKQLAAKLAYLQILSEETSVKSDYLSSGSFATTCESQSNSLVTSTLASESSSEGDFSADTSEINSNSDSLNSSSLLMNGLRNNQRKAKRSLAPRFDLPDMKETKYTVDKRFGMDFKEIELIGSGGFGQVFKAKHRIDGKTYVIKRVKYNNEKAEREVKALAKLDHVNIVHYNGCWDGFDYDPETSDDSLESSDYDPENSKNSSRSKTKCLFIQMEFCDKGTLEQWIEKRRGEKLDKVLALELFEQITKGVDYIHSKKLIHRDLKPSNIFLVDTKQVKIGDFGLVTSLKNDGKRTRSKGTLRYMSPEQISSQDYGKEVDLYALGLILAELLHVCDTAFETSKFFTDLRDGIISDIFDKKEKTLLQKLLSKKPEDRPNTSEILRTLTVWKKSPEKNERHTC
chain 2: TVDKRFGMDFKEIELIGSGGFGQVFKAKHRIDGKTYVIKRVKYNNEKAEREVKALAKLDHVNIVHYNGCWDGFDYDPETSDDSLESSDYDPENSKNSSRSKTKCLFIQMEFCDKGTLEQWIEKRRGEKLDKVLALELFEQITKGVDYIHSKKLIHRDLKPSNIFLVDTKQVKIGDFGLVTSLKNDGKRTRSKGTLRYMSPEQISSQDYGKEVDLYALGLILAELLHVCDTAFETSKFFTDLRDGIISDIFDKKEKTLLQKLLSKKPEDRPNTSEILRTLTVWKKSPEKNERHTC

Variants of: B1
Experiment: split Venus fluorescence complementation in HEK293 cells
[1] = 20 ng/well of each construct, 5 μM of 2AP, n = 3, read off a plot
[2] = 20 ng/well of each construct, n = 7, read off a plot

Row | response [1] | response [2] | response (20 ng/well of full-length PKR and 30 ng/well of the truncated KD, n = 7, read off a plot) | Variant
1 | 2.7 | 2.5 | – | chain 1 H37R
2 | – | – | 4.2 | chain 2 K39R
3 | 2.9 | 2.5 | – | chain 1 S33E H37R T42E
4 | 4.7 | 3 | – | chain 1 S33A H37R T42A
